Publication PMC9482650, “Quantitative fragmentomics allow affinity mapping of interactomes” (Nature Communications, 2022)

Key:
Assay in all cases: holdup assay
Set-up in all cases: key: below the threshold = too weak to quantify, mostly under pKd 3.1 to 4
Conditions in all cases: plain residues with an end cap or a label only (N-terminal biotin on a linker: ado-ado)
SCRIB_2, Q14160 = biological target: SCRIB_2, Q14160
SYNJ2BP, P57105 = biological target: T1, SYNJ2BP, P57105
T1 sequence (P57105 8-110, limits assumed, looked up): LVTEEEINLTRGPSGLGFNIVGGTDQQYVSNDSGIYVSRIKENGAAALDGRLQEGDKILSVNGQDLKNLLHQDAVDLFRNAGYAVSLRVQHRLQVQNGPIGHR

ARHGEF12, Q9NZN5-2 = biological target: ARHGEF12, Q9NZN5-2
SNTA1, Q13424 = biological target: T2, SNTA1, Q13424
T2 sequence (Q13424 82-180, limits assumed, looked up): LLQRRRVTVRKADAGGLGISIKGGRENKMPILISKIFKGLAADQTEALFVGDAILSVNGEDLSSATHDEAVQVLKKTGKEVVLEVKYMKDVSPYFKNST

SNTG2, Q9NY99 = biological target: T3, SNTG2, Q9NY99
T3 sequence (Q9NY99 68-166, limits assumed, looked up): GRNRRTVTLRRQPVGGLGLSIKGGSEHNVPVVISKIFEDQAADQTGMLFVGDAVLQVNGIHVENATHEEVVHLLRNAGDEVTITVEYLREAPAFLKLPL

AHNAK1, Q09666 = biological target: AHNAK1, Q09666
Inadl_9, Q8NI35 = biological target: Inadl_9, Q8NI35
PARD3_3, Q8TEW0 = biological target: PARD3_3, Q8TEW0
Inadl_4, Q8NI35 = biological target: Inadl_4, Q8NI35
NHERF4_1, Q86UT5-2 = biological target: NHERF4_1, Q86UT5-2
SNTG1, Q9NSN8 = biological target: T4, SNTG1, Q9NSN8
T4 sequence (Q9NSN8 52-150, limits assumed, looked up): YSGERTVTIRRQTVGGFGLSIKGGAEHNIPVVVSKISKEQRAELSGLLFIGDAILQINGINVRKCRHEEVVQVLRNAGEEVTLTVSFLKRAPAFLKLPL

CARD11, Q9BXL7 = biological target: T5, CARD11, Q9BXL7
T5 sequence (Q9BXL7 662-765, limits assumed, looked up): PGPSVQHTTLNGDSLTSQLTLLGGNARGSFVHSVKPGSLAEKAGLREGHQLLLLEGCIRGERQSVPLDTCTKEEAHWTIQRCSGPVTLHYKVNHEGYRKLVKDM

MPP7, Q5T2T1 = biological target: T6, MPP7, Q5T2T1
T6 sequence (Q5T2T1 134-230, limits assumed, looked up): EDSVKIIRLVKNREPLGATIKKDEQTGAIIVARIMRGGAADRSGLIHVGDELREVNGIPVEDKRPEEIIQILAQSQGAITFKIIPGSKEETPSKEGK

HTRA3, P83110 = biological target: T7, HTRA3, P83110
T7 sequence (P83110 354-453, limits assumed, looked up): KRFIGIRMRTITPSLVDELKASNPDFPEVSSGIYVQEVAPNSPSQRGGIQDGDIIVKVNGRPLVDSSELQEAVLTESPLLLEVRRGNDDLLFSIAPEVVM

LNX2_3, Q8N448 = biological target: T8, LNX2_3, Q8N448
T8 sequence (Q8N448 463-564, limits assumed, looked up): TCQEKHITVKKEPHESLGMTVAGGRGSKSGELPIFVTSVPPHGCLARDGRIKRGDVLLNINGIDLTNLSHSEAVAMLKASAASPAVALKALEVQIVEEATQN

HTRA4, P83105 = biological target: T9, HTRA4, P83105
T9 sequence (P83105 378-476, limits assumed, looked up): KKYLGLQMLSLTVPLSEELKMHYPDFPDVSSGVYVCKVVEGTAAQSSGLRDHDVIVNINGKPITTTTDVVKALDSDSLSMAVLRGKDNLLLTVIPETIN

TJP1_2, Q07157 = biological target: TJP1_2, Q07157
PCLO, Q9Y6V0 = biological target: T10, PCLO, Q9Y6V0
T10 sequence (Q9Y6V0 4491-4600, limits assumed, looked up): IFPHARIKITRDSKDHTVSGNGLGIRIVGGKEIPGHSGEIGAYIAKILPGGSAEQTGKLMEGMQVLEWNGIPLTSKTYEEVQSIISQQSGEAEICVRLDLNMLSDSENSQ

PARD3B_1, Q8TEW8 = biological target: T11, PARD3B_1, Q8TEW8
T11 sequence (Q8TEW8 196-299, limits assumed, looked up): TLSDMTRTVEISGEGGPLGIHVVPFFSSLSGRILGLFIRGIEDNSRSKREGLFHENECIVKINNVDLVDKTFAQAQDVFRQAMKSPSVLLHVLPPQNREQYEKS

IL16_1, Q14005 = biological target: IL16_1, Q14005
MAGI2_5, Q86UL8 = biological target: MAGI2_5, Q86UL8
MAST1, Q9Y2H9 = biological target: MAST1, Q9Y2H9
NHERF2_2, Q15599 = biological target: NHERF2_2, Q15599
DLG2_3, Q15700 = biological target: DLG2_3, Q15700
NOS1, P29475 = biological target: NOS1, P29475
Inadl_3, Q8NI35 = biological target: Inadl_3, Q8NI35
Chain of Inadl_3, Q8NI35 (Q8NI35 359-469): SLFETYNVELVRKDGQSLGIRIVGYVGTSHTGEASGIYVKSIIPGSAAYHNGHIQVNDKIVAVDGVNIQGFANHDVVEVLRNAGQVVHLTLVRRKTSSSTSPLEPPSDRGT

Chain of TJP1_2, Q07157 (Q07157 181-274): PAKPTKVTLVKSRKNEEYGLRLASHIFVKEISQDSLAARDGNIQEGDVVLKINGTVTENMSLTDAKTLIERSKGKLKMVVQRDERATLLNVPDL
Chain of IL16_1, Q14005 (Q14005 210-306): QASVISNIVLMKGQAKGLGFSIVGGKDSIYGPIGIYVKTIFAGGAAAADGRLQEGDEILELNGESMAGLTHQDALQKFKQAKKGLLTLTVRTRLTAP
Chain of Inadl_4, Q8NI35 (Q8NI35 547-651): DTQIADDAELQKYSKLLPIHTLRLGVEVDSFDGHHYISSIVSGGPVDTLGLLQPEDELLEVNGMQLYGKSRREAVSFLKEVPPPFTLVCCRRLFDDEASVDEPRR
Chain of PARD3_3, Q8TEW0 (Q8TEW0 582-685): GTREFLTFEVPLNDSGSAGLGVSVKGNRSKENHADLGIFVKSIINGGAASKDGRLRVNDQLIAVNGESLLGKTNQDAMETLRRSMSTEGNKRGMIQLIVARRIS
Chain of MAST1, Q9Y2H9 (Q9Y2H9 962-1065): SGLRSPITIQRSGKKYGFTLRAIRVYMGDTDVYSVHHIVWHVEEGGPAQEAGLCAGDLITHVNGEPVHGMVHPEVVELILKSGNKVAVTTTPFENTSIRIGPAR
Chain of NHERF2_2, Q15599 (Q15599 142-238): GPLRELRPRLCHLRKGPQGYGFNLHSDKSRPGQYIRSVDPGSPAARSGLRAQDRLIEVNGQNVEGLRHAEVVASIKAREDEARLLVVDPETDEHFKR
Chain of SCRIB_2, Q14160 (Q14160 857-960): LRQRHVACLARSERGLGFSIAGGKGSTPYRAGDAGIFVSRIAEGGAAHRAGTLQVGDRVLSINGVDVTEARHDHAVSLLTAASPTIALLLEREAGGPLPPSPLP
Chain of NOS1, P29475 (P29475 9-101): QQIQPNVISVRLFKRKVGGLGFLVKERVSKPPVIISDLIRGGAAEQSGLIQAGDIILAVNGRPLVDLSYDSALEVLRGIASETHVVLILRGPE
Chain of Inadl_9, Q8NI35 (Q8NI35 1530-1615): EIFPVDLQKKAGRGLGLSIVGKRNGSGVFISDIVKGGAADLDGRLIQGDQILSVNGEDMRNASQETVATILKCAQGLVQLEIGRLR
Chain of ARHGEF12, Q9NZN5-2 (Q9NZN5 other isoform, or with tags, fused parts or gaps): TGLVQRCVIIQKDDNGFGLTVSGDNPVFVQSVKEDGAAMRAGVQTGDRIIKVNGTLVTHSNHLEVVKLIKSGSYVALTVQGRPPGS
Chain of MAGI2_5, Q86UL8 (Q86UL8 915-1017): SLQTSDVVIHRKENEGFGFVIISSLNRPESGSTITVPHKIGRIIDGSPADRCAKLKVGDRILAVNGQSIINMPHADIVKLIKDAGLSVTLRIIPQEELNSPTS
Chain of AHNAK1, Q09666 (Q09666 4-100): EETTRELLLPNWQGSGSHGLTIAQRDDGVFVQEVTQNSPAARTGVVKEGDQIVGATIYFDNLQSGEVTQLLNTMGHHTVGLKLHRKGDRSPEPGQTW
Chain of NHERF4_1, Q86UT5-2 (Q86UT5 other isoform, or with tags, fused parts or gaps): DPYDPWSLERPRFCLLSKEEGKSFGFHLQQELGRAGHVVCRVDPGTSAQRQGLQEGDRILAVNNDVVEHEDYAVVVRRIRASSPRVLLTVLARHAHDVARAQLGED

Row | Binder | pKd (SCRIB_2, Q14160) | pKd (SYNJ2BP, P57105) | pKd (ARHGEF12, Q9NZN5-2) | pKd (SNTA1, Q13424) | pKd (SNTG2, Q9NY99) | pKd (AHNAK1, Q09666) | pKd (Inadl_9, Q8NI35) | pKd (PARD3_3, Q8TEW0) | pKd (Inadl_4, Q8NI35) | pKd (NHERF4_1, Q86UT5-2) | pKd (SNTG1, Q9NSN8) | pKd (CARD11, Q9BXL7) | pKd (MPP7, Q5T2T1) | pKd (HTRA3, P83110) | pKd (LNX2_3, Q8N448) | pKd (HTRA4, P83105) | pKd (TJP1_2, Q07157) | pKd (PCLO, Q9Y6V0) | pKd (PARD3B_1, Q8TEW8) | pKd (IL16_1, Q14005) | other results
1 | PSVYSRSQYV [CLDN8, P56748] | below the threshold | below the threshold | 4.19 | below the threshold | below the threshold | below the threshold | 4.36 | below the threshold | below the threshold | 4.03 | below the threshold | below the threshold | below the threshold | 4.72 | below the threshold | 4.23 | below the threshold | below the threshold | 3.58 | below the threshold | pKd (MAGI2_5, Q86UL8): below the threshold; pKd (MAST1, Q9Y2H9): 3.95; pKd (NHERF2_2, Q15599): below the threshold; pKd (DLG2_3, Q15700): below the threshold; pKd (NOS1, P29475): 3.99; pKd (Inadl_3, Q8NI35): below the threshold
2 | RGKNRRQSIF [CDK18, Q07002] | below the threshold | below the threshold | below the threshold | below the threshold | below the threshold | below the threshold | below the threshold | below the threshold | below the threshold | 3.87 | below the threshold | below the threshold | below the threshold | below the threshold | below the threshold | below the threshold | below the threshold | below the threshold | 3.89 | below the threshold | pKd (MAGI2_5, Q86UL8): below the threshold; pKd (MAST1, Q9Y2H9): 4.15; pKd (NHERF2_2, Q15599): below the threshold; pKd (DLG2_3, Q15700): 4.11; pKd (NOS1, P29475): 3.75; pKd (Inadl_3, Q8NI35): below the threshold
3 | NKSEPFLTWL [WWTR1, Q9GZV5] | below the threshold | 4.52 | 4.95 | below the threshold | below the threshold | below the threshold | 4.23 | 4.78 | below the threshold | 4.46 | below the threshold | below the threshold | 3.8 | 5.43 | below the threshold | 4.6 | below the threshold | below the threshold | 4.57 | below the threshold | pKd (MAGI2_5, Q86UL8): 3.94; pKd (MAST1, Q9Y2H9): 4.25; pKd (NHERF2_2, Q15599): 5.27; pKd (DLG2_3, Q15700): below the threshold; pKd (NOS1, P29475): 4.05; pKd (Inadl_3, Q8NI35): 4.35
4 | QLGSPTADLA [SIPA1, Q96FS4] | below the threshold | below the threshold | below the threshold | below the threshold | below the threshold | below the threshold | below the threshold | below the threshold | below the threshold | below the threshold | below the threshold | below the threshold | below the threshold | below the threshold | below the threshold | below the threshold | below the threshold | below the threshold | below the threshold | below the threshold | pKd (MAGI2_5, Q86UL8): below the threshold; pKd (MAST1, Q9Y2H9): 3.84; pKd (NHERF2_2, Q15599): below the threshold; pKd (DLG2_3, Q15700): 3.57; pKd (NOS1, P29475): below the threshold; pKd (Inadl_3, Q8NI35): below the threshold
